B1: Speckle-type POZ protein (Homo sapiens), O43791 (parent)
chain: MSRVPSPPPPAEMSSGPVAESWCYTQIKVVKFSYMWTINNFSFCREEMGEVIKSSTFSSGANDKLKWCLRVNPKGLDEESKDYLSLYLLLVSCPKSEVRAKFKFSILNAKGEETKAMESQRAYRFVQGKDWGFKKFIRRDFLLDEANGLLPDDKLTLFCEVSVVQDSVNISGQNTMNMVKVPECRLADELGGLWENSRFTDCCLCVAGQEFQAHKAILAARSPVFSAMFEHEMEESKKNRVEINDVEPEVFKEMMCFIYTGKAPNLDKMADDLLAAADKYALERLKVMCEDALCSNLSVENAAEILILADLHSADQLKTQAVDFINYHASDVLETSGWKSMVVSHPHLVAEAYRSLASAQCPFLGPPRKRLKQS
partner: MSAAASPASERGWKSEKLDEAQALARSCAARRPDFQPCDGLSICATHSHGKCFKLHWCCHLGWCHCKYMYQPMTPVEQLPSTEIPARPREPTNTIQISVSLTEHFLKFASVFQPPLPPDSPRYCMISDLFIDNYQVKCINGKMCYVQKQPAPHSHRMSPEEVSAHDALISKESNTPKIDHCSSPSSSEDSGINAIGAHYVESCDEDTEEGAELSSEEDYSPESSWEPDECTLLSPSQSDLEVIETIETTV
B2: Speckle-type POZ protein (Homo sapiens), O43791 (parent)
chain: B1 chain
partner: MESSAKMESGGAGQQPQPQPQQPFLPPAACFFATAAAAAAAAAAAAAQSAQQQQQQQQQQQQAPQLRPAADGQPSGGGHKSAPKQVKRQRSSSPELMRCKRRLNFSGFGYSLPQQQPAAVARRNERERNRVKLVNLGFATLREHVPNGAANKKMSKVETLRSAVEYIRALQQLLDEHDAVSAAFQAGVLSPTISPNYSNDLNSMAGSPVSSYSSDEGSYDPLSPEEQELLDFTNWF
B3: Speckle-type POZ protein (Homo sapiens), O43791 (parent)
chain: B1 chain
partner: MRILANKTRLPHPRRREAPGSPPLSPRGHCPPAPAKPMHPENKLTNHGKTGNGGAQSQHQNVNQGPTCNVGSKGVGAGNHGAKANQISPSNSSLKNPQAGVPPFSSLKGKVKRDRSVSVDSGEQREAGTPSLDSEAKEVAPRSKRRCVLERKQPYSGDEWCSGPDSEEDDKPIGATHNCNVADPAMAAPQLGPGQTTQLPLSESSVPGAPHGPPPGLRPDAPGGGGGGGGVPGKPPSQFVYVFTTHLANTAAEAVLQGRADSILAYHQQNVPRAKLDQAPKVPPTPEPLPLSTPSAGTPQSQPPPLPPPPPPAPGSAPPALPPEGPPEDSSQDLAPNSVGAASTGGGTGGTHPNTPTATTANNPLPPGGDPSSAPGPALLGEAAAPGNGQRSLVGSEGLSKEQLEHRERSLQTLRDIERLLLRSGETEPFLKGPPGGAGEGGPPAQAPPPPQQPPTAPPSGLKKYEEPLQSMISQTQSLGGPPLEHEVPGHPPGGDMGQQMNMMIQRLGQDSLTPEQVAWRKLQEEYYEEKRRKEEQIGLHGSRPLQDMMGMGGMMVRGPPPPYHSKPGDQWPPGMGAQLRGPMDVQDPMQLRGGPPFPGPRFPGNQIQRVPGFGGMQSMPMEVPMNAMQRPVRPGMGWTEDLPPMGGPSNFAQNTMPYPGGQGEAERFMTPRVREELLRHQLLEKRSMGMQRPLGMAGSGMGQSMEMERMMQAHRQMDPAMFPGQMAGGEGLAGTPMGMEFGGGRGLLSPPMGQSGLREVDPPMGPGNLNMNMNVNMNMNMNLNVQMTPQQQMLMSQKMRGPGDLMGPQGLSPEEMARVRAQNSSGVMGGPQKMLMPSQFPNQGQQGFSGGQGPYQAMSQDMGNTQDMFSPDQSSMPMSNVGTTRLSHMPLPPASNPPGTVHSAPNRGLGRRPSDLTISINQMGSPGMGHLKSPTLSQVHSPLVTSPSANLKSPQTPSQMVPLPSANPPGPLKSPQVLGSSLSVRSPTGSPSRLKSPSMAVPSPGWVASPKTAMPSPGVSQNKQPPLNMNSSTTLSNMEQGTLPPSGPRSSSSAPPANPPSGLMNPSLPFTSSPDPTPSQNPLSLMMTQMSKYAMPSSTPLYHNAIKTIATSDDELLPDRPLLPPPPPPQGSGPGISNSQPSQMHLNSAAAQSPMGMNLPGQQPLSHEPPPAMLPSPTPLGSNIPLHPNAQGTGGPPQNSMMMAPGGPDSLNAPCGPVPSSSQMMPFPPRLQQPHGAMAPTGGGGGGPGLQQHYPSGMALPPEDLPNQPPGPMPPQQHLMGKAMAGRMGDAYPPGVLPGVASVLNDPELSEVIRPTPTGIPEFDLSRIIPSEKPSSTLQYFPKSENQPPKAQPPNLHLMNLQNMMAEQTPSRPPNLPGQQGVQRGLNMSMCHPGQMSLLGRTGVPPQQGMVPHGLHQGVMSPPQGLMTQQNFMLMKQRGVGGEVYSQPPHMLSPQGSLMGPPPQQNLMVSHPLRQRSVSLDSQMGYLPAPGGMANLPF

Variants of: B1
Conditions: with cc070_human C3orf70, A6NLC5

| Variant | effect of a mutation on the interaction |
| --- | --- |
| MSRVPSPPPPAEMSSGPVAESWCYTQIKVVKFSYMWTINNFSFCREEMGEVIKSSTFSSGANDKLKWCLRVNPKGLDEESKDYLSLYLLLVSCPKSEVRAKFKFSILNAKGEETKAMESQRAYRFVQGKDWGLKKFIRRDFLLDEANGLLPDDKLTLFCEVSVVQDSVNISGQNTMNMVKVPECRLADELGGLWENSRFTDCCLCVAGQEFQAHKAILAARSPVFSAMFEHEMEESKKNRVEINDVEPEVFKEMMCFIYTGKAPNLDKMADDLLAAADKYALERLKVMCEDALCSNLSVENAAEILILADLHSADQLKTQAVDFINYHASDVLETSGWKSMVVSHPHLVAEAYRSLASAQCPFLGPPRKRLKQS [F133L] | with no effect |

Variants of: B1
Conditions: with cc070_human C3orf70, A6NLC5
Remark: another data set of the same source

| Variant | effect of a mutation on the interaction |
| --- | --- |
| MSRVPSPPPPAEMSSGPVAESWCYTQIKVVKFSYMWTINNFSFCREEMGEVIKSSTFSSGANDKLKWCLRVNPKGLDEESKDYLSLYLLLVSCPKSEVRAKCKFSILNAKGEETKAMESQRAYRFVQGKDWGFKKFIRRDFLLDEANGLLPDDKLTLFCEVSVVQDSVNISGQNTMNMVKVPECRLADELGGLWENSRFTDCCLCVAGQEFQAHKAILAARSPVFSAMFEHEMEESKKNRVEINDVEPEVFKEMMCFIYTGKAPNLDKMADDLLAAADKYALERLKVMCEDALCSNLSVENAAEILILADLHSADQLKTQAVDFINYHASDVLETSGWKSMVVSHPHLVAEAYRSLASAQCPFLGPPRKRLKQS [F102C] | with no effect |

Variants of: B2
Conditions: with ascl1_human ASCL1, P50553

| Variant | effect of a mutation on the interaction |
| --- | --- |
| MSRVPSPPPPAEMSSGPVAESWCYTQIKVVKFSYMWTINNFSFCREEMGEVIKSSTFSSGANDKLKWCLRVNPKGLDEESKDYLSLYLLLVSCPKSEVRAKFKFSILNAKGEETKAMESQRAYRFVQGKDWGLKKFIRRDFLLDEANGLLPDDKLTLFCEVSVVQDSVNISGQNTMNMVKVPECRLADELGGLWENSRFTDCCLCVAGQEFQAHKAILAARSPVFSAMFEHEMEESKKNRVEINDVEPEVFKEMMCFIYTGKAPNLDKMADDLLAAADKYALERLKVMCEDALCSNLSVENAAEILILADLHSADQLKTQAVDFINYHASDVLETSGWKSMVVSHPHLVAEAYRSLASAQCPFLGPPRKRLKQS [F133L] | with no effect |

Variants of: B2
Conditions: with ascl1_human ASCL1, P50553
Remark: another data set of the same source

| Variant | effect of a mutation on the interaction |
| --- | --- |
| MSRVPSPPPPAEMSSGPVAESWCYTQIKVVKFSYMWTINNFSFCREEMGEVIKSSTFSSGANDKLKWCLRVNPKGLDEESKDYLSLYLLLVSCPKSEVRAKFKFSILNAKGEETKAMESQRAYRFVQGKDWGVKKFIRRDFLLDEANGLLPDDKLTLFCEVSVVQDSVNISGQNTMNMVKVPECRLADELGGLWENSRFTDCCLCVAGQEFQAHKAILAARSPVFSAMFEHEMEESKKNRVEINDVEPEVFKEMMCFIYTGKAPNLDKMADDLLAAADKYALERLKVMCEDALCSNLSVENAAEILILADLHSADQLKTQAVDFINYHASDVLETSGWKSMVVSHPHLVAEAYRSLASAQCPFLGPPRKRLKQS [F133V] | with no effect |

Variants of: B2
Conditions: with ascl1_human ASCL1, P50553
Remark: another data set of the same source

| Variant | effect of a mutation on the interaction |
| --- | --- |
| MSRVPSPPPPAEMSSGPVAESWCYTQIKVVKFSYMWTINNFSFCREEMGEVIKSSTFSSGANDKLKWCLRVNPKGLDEESKDYLSLCLLLVSCPKSEVRAKFKFSILNAKGEETKAMESQRAYRFVQGKDWGFKKFIRRDFLLDEANGLLPDDKLTLFCEVSVVQDSVNISGQNTMNMVKVPECRLADELGGLWENSRFTDCCLCVAGQEFQAHKAILAARSPVFSAMFEHEMEESKKNRVEINDVEPEVFKEMMCFIYTGKAPNLDKMADDLLAAADKYALERLKVMCEDALCSNLSVENAAEILILADLHSADQLKTQAVDFINYHASDVLETSGWKSMVVSHPHLVAEAYRSLASAQCPFLGPPRKRLKQS [Y87C] | with no effect |

Variants of: B2
Conditions: with ascl1_human ASCL1, P50553
Remark: another data set of the same source

| Variant | effect of a mutation on the interaction |
| --- | --- |
| MSRVPSPPPPAEMSSGPVAESWCYTQIKVVKFSYMWTINNFSFCREEMGEVIKSSTFSSGANDKLKWCLRVNPKGLDEESKDYLSLYLLLVSCPKSEVRAKCKFSILNAKGEETKAMESQRAYRFVQGKDWGFKKFIRRDFLLDEANGLLPDDKLTLFCEVSVVQDSVNISGQNTMNMVKVPECRLADELGGLWENSRFTDCCLCVAGQEFQAHKAILAARSPVFSAMFEHEMEESKKNRVEINDVEPEVFKEMMCFIYTGKAPNLDKMADDLLAAADKYALERLKVMCEDALCSNLSVENAAEILILADLHSADQLKTQAVDFINYHASDVLETSGWKSMVVSHPHLVAEAYRSLASAQCPFLGPPRKRLKQS [F102C] | with no effect |

Variants of: B3
Conditions: with bcl9l_human BCL9L

| Variant | effect of a mutation on the interaction |
| --- | --- |
| MSRVPSPPPPAEMSSGPVAESWCYTQIKVVKFSYMWTINNFSFCREEMGEVIKSSTFSSGANDKLKWCLRVNPKGLDEESKDYLSLYLLLVSCPKSEVRAKFKFSILNAKGEETKAMESQRAYRFVQGKDWGLKKFIRRDFLLDEANGLLPDDKLTLFCEVSVVQDSVNISGQNTMNMVKVPECRLADELGGLWENSRFTDCCLCVAGQEFQAHKAILAARSPVFSAMFEHEMEESKKNRVEINDVEPEVFKEMMCFIYTGKAPNLDKMADDLLAAADKYALERLKVMCEDALCSNLSVENAAEILILADLHSADQLKTQAVDFINYHASDVLETSGWKSMVVSHPHLVAEAYRSLASAQCPFLGPPRKRLKQS [F133L] | with no effect |

Variants of: B3
Conditions: with bcl9l_human BCL9L
Remark: another data set of the same source

| Variant | effect of a mutation on the interaction |
| --- | --- |
| MSRVPSPPPPAEMSSGPVAESWCYTQIKVVKFSYMWTINNFSFCREEMGEVIKSSTFSSGANDKLKWCLRVNPKGLDEESKDYLSLYLLLVSCPKSEVRAKFKFSILNAKGEETKAMESQRAYRFVQGKDWGVKKFIRRDFLLDEANGLLPDDKLTLFCEVSVVQDSVNISGQNTMNMVKVPECRLADELGGLWENSRFTDCCLCVAGQEFQAHKAILAARSPVFSAMFEHEMEESKKNRVEINDVEPEVFKEMMCFIYTGKAPNLDKMADDLLAAADKYALERLKVMCEDALCSNLSVENAAEILILADLHSADQLKTQAVDFINYHASDVLETSGWKSMVVSHPHLVAEAYRSLASAQCPFLGPPRKRLKQS [F133V] | with no effect |

Reference: IntAct's records for PubMed 35512704
